Measurements from the supplement of paper PMC10567573.

B1: SCNN1D (parent)
chain: FYRLYQDLETHRLPCTSRCPRPCR
B2: ZNF207 (parent)
chain: YQGGPPRPPMGMRPPVMSQGGRY

Variants of: B1
Experiment: protein stability index of a GFP-peptide fusion (GPS, HEK-293T) (PSI 1-6); higher = more stable
Settings: c terminus: a fixed tail appended
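Further: lentivirally expressed fusions sorted by FACS into six bins by GFP to DsRed ratio, PSI derived from sequencing read proportions per bin multiplied by bin number.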

Row | Variant | protein stability index
1 | F1M | 2.02
2 | F1A | 2.87
3 | F1D | 3.8
4 | F1H | 3.06
5 | F1E | 3.71
6 | F1C | 2.22
7 | F1L | 1.54
8 | F1N | 3.47
9 | F1K | 3.37
10 | F1G | 4.3
11 | F1I | 2.12

Variants of: B2
Experiment: as above
Settings: c terminus: native

Row | Variant | protein stability index
12 | M12K | 2.34
13 | M12R | 1.35
14 | M12T | 2.64
15 | M12E | 2.88
16 | M12G | 2.05
17 | M12I | 2.25
18 | R13M | 2.1
19 | R13W | 1.79
20 | R13S | 1.96
21 | R13I | 2.76
22 | G20F | 1.88
23 | G20Y | 1.68
24 | G20R | 2.75
25 | G20W | 2.46
26 | Q19T | 2.39
27 | Q19R | 2.17
28 | Q19N | 2.56
29 | Q19K | 2.18
30 | Q19P | 1.9
31 | Q19E | 2.17
32 | Q19L | 1.46
33 | Q2L | 2.34
34 | Q2P | 1.72

Row | Variant | protein stability index
35 | Q2K | 2.57
36 | Q2Y | 2.89
37 | Q2F | 1.65
38 | Q2W | 2.1
39 | Q2E | 2.4
40 | Q2N | 2.45
41 | Q2D | 2.16
42 | Q2M | 2.05
43 | P14G | 2.35
44 | P14K | 1.43
45 | P5C | 1.61
46 | P5N | 2.12
47 | P5E | 2.81
48 | P5V | 2.82
49 | P5G | 2.99
50 | P5L | 2.34
51 | P5K | 2.56
52 | P5H | 1.92
53 | P5T | 3.09
54 | P5M | 1.22
55 | G11N | 1.97
56 | G11Y | 2.14
57 | G11I | 2.95

Row | Variant | protein stability index
58 | G11H | 1.43
59 | G11S | 1.52
60 | G11C | 1.81
61 | V16I | 2.03
62 | V16C | 2.44
63 | V16N | 2.65
64 | V16W | 1.75
65 | V16K | 2.93
66 | G21C | 2.24
67 | G21T | 2.74
68 | G21S | 1.82
69 | G21F | 1.72
70 | G21H | 1.77
71 | G21V | 2.3
72 | Y23P | 2.82
73 | Y23A | 1.98
74 | Y23V | 1.5
75 | Y23L | 1.66
76 | Y23W | 3.51
77 | Y23S | 2.43
78 | Y23D | 3.11
79 | G4H | 2.6
80 | G4Y | 2.05

Row | Variant | protein stability index
81 | G4M | 1.46
82 | G4D | 3.56
83 | G4L | 1.5
84 | G4N | 3.23
85 | G4Q | 3.54
86 | G4V | 2.74
87 | G4C | 2.52
88 | G4I | 2.34
89 | G4R | 2.51
90 | G4W | 3.5
91 | P6S | 2.45
92 | P6D | 2.73
93 | P6Q | 2.2
94 | P6N | 2.59
95 | P6M | 2.19
96 | P6E | 2.95
97 | P6L | 2.58
98 | P6K | 2.91
99 | P6G | 2.07
100 | P6I | 2.49
101 | P6T | 2.06
102 | P6A | 1.6
103 | S18Y | 1.58

Row | Variant | protein stability index
104 | S18P | 2.08
105 | S18E | 2.72
106 | S18N | 2.13
107 | S18H | 1.44
108 | S18R | 2.2
109 | S18W | 2.56
110 | R22S | 1.7
111 | R22T | 1.89
112 | R22F | 1.21
113 | R22M | 1.69
114 | R22Q | 1.43
115 | P9M | 1.12
116 | P9K | 1.73
117 | P9I | 2.91
118 | P9A | 1.83
119 | P9G | 2.84
120 | P9R | 1.87
121 | P8A | 1.09
122 | P8I | 2.2
123 | P8N | 2.49
124 | P8C | 1
125 | R7K | 2.71
126 | R7V | 1.66

Row | Variant | protein stability index
127 | R7E | 3.09
128 | M10V | 2.57
129 | M10Q | 2.14
130 | M10S | 2.1
131 | M10H | 2.34
132 | M10I | 3.45
133 | M10N | 1.82
134 | M17S | 2.62
135 | M17F | 2.17
136 | M17K | 2.85
137 | M17D | 2.86
138 | M17Q | 2.56
139 | M17Y | 1.75
140 | G3L | 2.31
141 | G3Q | 2.32
142 | G3E | 2.33
143 | G3I | 3.37
144 | G3A | 2.62
145 | G3Y | 2.42
146 | G3H | 1.5
147 | G3M | 1.59
148 | G3V | 1.43
149 | G3N | 1.38

Row | Variant | protein stability index
150 | Y1Q | 3.65
151 | Y1G | 3.87
152 | Y1N | 3.31
153 | Y1C | 3.27
154 | Y1T | 2.64
155 | Y1I | 2.89
156 | Y1W | 2.49
157 | Y1S | 1.67
158 | P15S | 2.23
159 | P15K | 1.09
160 | P15H | 2.71
161 | P15T | 1.61
162 | P15D | 2.27
163 | P15Q | 2.65
164 | P15F | 1.58
165 | P15E | 2.2
166 | P15R | 2.07
167 | P15V | 3.12
